# Measured values published in doi:10.1101/2024.02.20.581209 (bioRxiv, 2024).
# B1: RomX (N-terminal hexahistidine tagged construct) (natural protein, M. xanthus)
# chain: MTDEEKVKAMRLARAIASDISLYNEQKIIKGIEQDNLFEVLKEELEEGRELYKSRVSQEIFTKMNFFERAINDIVLRSKAHVKSKIW
# Assays:
# [1] = biological target: RomR-REC^141 (Myxococcus xanthus); assay: SEC-MALS
# MglA = biological target: T1, MglA (Myxococcus xanthus, UniProt Q1DB04 1-195); assay: ITC
# T1 sequence: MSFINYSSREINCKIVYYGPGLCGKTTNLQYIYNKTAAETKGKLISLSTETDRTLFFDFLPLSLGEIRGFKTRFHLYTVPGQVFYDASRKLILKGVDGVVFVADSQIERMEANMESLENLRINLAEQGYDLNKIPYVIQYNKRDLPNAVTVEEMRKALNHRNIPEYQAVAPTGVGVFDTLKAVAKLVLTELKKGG
# [2] = biological target: RomR-REC^141 (Myxococcus xanthus); assay: ITC
# [3] = biological target: RomR-REC^125 (Myxococcus xanthus); assay: ITC
stoichiometry N [1],Kd (MglA),stoichiometry N (MglA),Kd [2],stoichiometry N [2],Kd [3],stoichiometry N [3],Molecule
1,–,–,–,–,–,–,"RomX (hexahistidine-tagged, end of the tag not told for this experiment) (natural protein)"
–,4800 nM,1.1,1200 nM,1.2,1140 nM,1.3,B1
